According to patent US20100256338A1:

Target: EGFR on cells (H322M) (human), P00533
Assay: cell-based or functional assay

B1: humanized <EGFR>ICR62 (antibody, V domains shown)
VH: QVQLVQSGAEVKKPGSSVKVSCKASGFTFTDYKIHWVRQAPGQGLEWMGYFNPNSGYSTYAQKFQGRVTITADKSTSTAYMELSSLRSEDTAVYYCARLSPGGYYVMDAWGQGTTVTVSS
VL: DIQMTQSPSSLSASVGDRVTITCRASQGINNYLNWYQQKPGKAPKRLIYNTNNLQTGVPSRFSGSGSGTEFTLTISSLQPEDFATYYCLQHNSFPTFGQGTKLEIKRT
reduction of cell growth, H322M spheroids, 7 days, 100 nM, Celltiter Glow: 77%
